Data published in publication PMC5881502 (The Journal of Cell Biology, 2018).

B1: Hsp42ΔIDD (purified) (natural protein, S. cerevisiae, UniProt Q12329 1-375, looked up)
chain: MSFYQPSLSLYDVLNALSNQTGQRGQQGYPRQPQRPQRYHPHYGQVHVGGHHPRHHPLYSRYNGVPNTYYYQFPGQAYYYSPEYGYDDEDGEEEDQDEDSPEVNVYDTEDTYVVVLALPGANSRAFHIDYHPSSHEMLIKGKIEDRVGIDEKFLKITELKYGAFERTVKFPVLPRIKDEEIKATYNNGLLQIKVPKIVNDTEKPKPKKRIAIEEIPDEELEFEENPNPTVEN
B2: Hsp42ΔPrLD (purified) (domain or fragment, S. cerevisiae, UniProt Q12329 100-375, looked up)
chain: MVGDSGTTRQEDGGEDSNSRRYPSYYHCNTARNNRTNQQANSLNDLLTALIGVPPYEGTEPEIEANTEQEGEKGEEKDKKDKSEAPKEEAGETNKEKPLNQLEESSRPPLAKKSSSFAHLQAPSPIPDPLQVSKPETRMDLPFSPEVNVYDTEDTYVVVLALPGANSRAFHIDYHPSSHEMLIKGKIEDRVGIDEKFLKITELKYGAFERTVKFPVLPRIKDEEIKATYNNGLLQIKVPKIVNDTEKPKPKKRIAIEEIPDEELEFEENPNPTVEN
B3: malate dehydrogenase (MDH) (enzyme)
chain: AKVAVLGASGGIGQPLSLLLKNSPLVSRLTLYDIAHTPGVAADLSHIETRATVKGYLGPEQLPDCLKGCDVVVIPAGVPRKPGMTRDDLFNTNATIVATLTAACAQHCPDAMICIISNPVNSTIPITAEVFKKHGVYNPNKIFGVTTLDIVRANAFVAELKGLDPARVSVPVIGGHAGKTIIPLISQCTPKVDFPQDQLSTLTGRIQEAGTEVVKAKAGAGSATLSMAYAGARFVFSLVDAMNGKEGVVECSFVKSQETDCPYFSTPLLLGKKGIEKNLGIGKISPFEEKMIAEAIPELKASIKKGEEFVKNMK

Assays:
SEC-MALS = target: the molecule itself; test: SEC-MALS
[1] = target: B3; test: HDX-MS
[2] = target: Hsp42 WT (purified, C-terminally FLAG-tagged) (S. cerevisiae, UniProt Q12329 1-375); test: HDX-MS

binding result [1]	binding result [2]	Binder	stoichiometry N (SEC-MALS)
binds	–	B1	36 subunits
–	–	B2	4 subunits
–	binds	B3	–
